Consider 30 molecules from US20250340637A1 (ABPRO, published 2025).

Substitutions are numbered along the chain they refer to. Names and notes keep the numbering of the source. Where two headings read alike, the source gives them in different places. A value given as a limit tells only on which side of the number the result lay.

Holding throughout (test): SPR, Biacore 8K; CD3 Affinity column: Hi
Assay [1] deals with T1, HuCD3E (Homo sapiens, UniProt P07766 23-126, limits assumed).
T1 construct: Recombinant analyte in SPR and antigen in ELISA; also called human CD3; human CD3 epsilon

Assay [2] concerns the target T1, HuCD3E. The method, then:
Initially, the affinity measurement of the anti-CD3 clones were determined using a Surface Plasmon Resonance (SPR) biosensor, Biacore 8K (GE Healthcare). The equilibrium dissociation constant (KD) was calculated from the ratio of kd over ka. To determine the contribution of a specific residue to antibody affinity and expression, paratope mapping was performed by screening of NNK libraries. In brief, the VH and VL of the parental antibody were searched by using NCBI Ig-Blast (www.ncbi.nlm.nih.gov/projects/igblast/) and CDRs were defined by the KABAT delineation system. All residues within CDRs were defined and mutated by NNK method. Each individual NNK library was generated per residue based on the FASEBA platform with a theoretical diversity at 20. The DNA encoding both heavy chain and light chain were inserted into a mammalian expression vector, transfected into CHO-S cells, and stable clones of highest expression were selected. Supernatants were collected from shaker flasks and purified on protein A affinity chromatography.
Affinity ranking. Binding between the parental and affinity-tuned bispecific antibodies and human and cyno target proteins (HER2 and CD3) was validated by ELISA, and a Biacore 8K was used to study the kinetics of the interaction between the antigen and the bispecific antibodies.
The source holds these as a separate data set.

Assay [3] addresses T1, HuCD3E. This is another data set of the same source.

T1 sequence (P07766 23-126 limits assumed): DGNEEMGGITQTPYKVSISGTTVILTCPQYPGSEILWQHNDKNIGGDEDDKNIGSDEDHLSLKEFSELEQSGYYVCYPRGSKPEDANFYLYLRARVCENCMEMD

B1: ABP100s.1 (antibody, V domains shown)
VH: EVQLVESGGGLVQPGGSLRLSCAASGFTFNTYAMNWVRQAPGKGLEWVARIRSKYNNYATYYADSVKGRFTISRDDSQSSLYLQMNSLKTEDTAVYYCVRHGNFGNSYVSWFAYWGQGTLVTVSS
VL: QAVVTQEPSFSVSPGGTVTLTCGSSTGAVTTSNYANWVQQTPGQAFRGLIGGTNKRAPGVPDRFSGSLIGDKAALTITGAQADDESDYFCALWYSNLWVFGGGTKLTVL
Take B1: the Kd with HuCD3E [1] was below 10 nM.

B2: anti-HER2×CD3 BsAb comprising the anti-CD3 VH and VL sequences of ABP100s.10.0 (bispecific antibody, V domains shown)
VH 1: not shown
VL 1: not shown
VH 2: B1 VH with R19K, G44C, G68D, Q78K, S79N, S80T, L81A
VL 2: QTVVTQEPSLTVSPGGTVTLTCRSSTGAVTTSNYANWVQQKPGQAFRGLIGGTNKRAPGVPARFSGSLLGGKAALTLSGVQPEDEAIYFCALWYSNLWVFGCGTKLTVL
notes: Only the four variable domains are tied to the tested molecule; also called 10.0 clone; parental construct
As to B2, in the assay with HuCD3E [1], the Kd was below 10 nM.

B3: ABP100s.19 (antibody, V domains shown)
VH: B1 VH with Q13K, K89R, T90A
VL: QAVVTQEPSLTVSPGGTVTLTCGSSTGAVTTSNYANWVQQKPGQAFRGLIGGTNKKASWTPARFSGSLLGDKAALTLSGAQPEDEAEYYCALWYSNLWVFGGGTKLTVL
In turn, B3 registered a Kd with HuCD3E [2] below 10 nM.

B4: ABP100s.14 (antibody, V domains shown)
VH: B1 VH with Q78K
VL: B3 VL with K56R, S58P, L69I, Y89F
On to B4, for which the Kd with HuCD3E [2] is below 10 nM.

B5: ABP100s.20 (antibody, V domains shown)
VH: B1 VH with Q13K, S77A, Q78K, K89R, T90A
VL: B3 VL
Take B5: the Kd in the assay with HuCD3E [2] is below 10 nM.

B6: ABP100s.17 (antibody, V domains shown)
VH: B1 VH
VL: B3 VL
As for B6, the Kd with HuCD3E [2] was below 10 nM.

B7: ABP100s.15 (antibody, V domains shown)
VH: B1 VH with Q13K, K89R, T90A
VL: B3 VL with K56R, S58P, L69I, Y89F
B7 had a Kd with HuCD3E [2] below 10 nM.

B8: ABP100s.16 (antibody, V domains shown)
VH: B1 VH with Q13K, S77A, Q78K, K89R, T90A
VL: B3 VL with K56R, S58P, L69I, Y89F
In turn, B8 showed a Kd with HuCD3E [2] below 10 nM.

B9: ABP100s.5.4 (antibody, V domains shown)
VH: B1 VH with R19K, G68D, Q78K, S79N, S80T, L81A
VL: B2 VL 2 with C102G
In the assay with HuCD3E [1], B9 displayed a Kd below 10 nM.

B10: ABP100s.18 (antibody, V domains shown)
VH: B1 VH with Q78K
VL: B3 VL
For the molecule B10, the Kd with HuCD3E [2] was below 10 nM.

B11: ABP100s.24 (antibody, V domains shown)
VH: B1 VH with Q13K, S77A, Q78K, K89R, T90A
VL: B1 VL with P58S, I69L, F89Y
B11 gave a Kd with HuCD3E [2] below 10 nM.

B12: ABP100s.5.2 (antibody, V domains shown)
VH: B1 VH with R19K, G68D, Q78K, S79N, S80T, L81A, Q117C
VL: B2 VL 2 with A45C, C102G, T107E, V108I, L109K
In turn, B12 returned a Kd in the assay with HuCD3E [1] below 10 nM.

B13: ABP100s.13 (antibody, V domains shown)
VH: B1 VH
VL: B3 VL with K56R, S58P, L69I, Y89F
On to B13, for which the Kd with HuCD3E [2] is below 10 nM.

B14: 32G4-V8 x huSP34-v5 (bispecific antibody, V domains shown)
VH: B1 VH with R19K, G68D, Q78K, S79N, S80T, L81A
VL: B2 VL 2 with C102G, T107E, V108I, L109K
notes: The name reads as 32G4-V8 arm x huSP34-v5 arm
Molecule B14 registered a Kd in the assay with HuCD3E [3] below 10 nM.

B15: ABP100s.5.1 (antibody, V domains shown)
VH: B1 VH with R19K, G44C, G68D, Q78K, S79N, S80T, L81A
VL: B2 VL 2 with T107E, V108I, L109K
In the assay with HuCD3E [1], B15 yielded a Kd below 10 nM.

B16: ABP100s.2 (antibody, V domains shown)
VH: B1 VH with Q78K
VL: B1 VL
In the assay with HuCD3E [1], B16 registered a Kd below 10 nM.

B17: ABP100s.23 (antibody, V domains shown)
VH: B1 VH with Q13K, K89R, T90A
VL: B1 VL with P58S, I69L, F89Y
With B17, the Kd in the assay with HuCD3E [2] was below 10 nM.

B18: ABP100s.6 (antibody, V domains shown)
VH: B1 VH with R19K, G68D, Q78K, S79N, S80T, L81A
VL: B2 VL 2 with I87E, C102G, T107E, V108I, L109K
Take B18: the Kd in the assay with HuCD3E [1] was below 10 nM.

B19: ABP100s.10.1 (antibody, V domains shown)
VH: B1 VH with R19K, G44C, G68D, Q78K, S79N, S80T, L81A
VL: B2 VL 2
B19 returned a Kd with HuCD3E [1] below 10 nM.

B20: ABP100s.3 (antibody, V domains shown)
VH: B1 VH with Q13K, K89R, T90A
VL: B1 VL
Molecule B20 returned a Kd in the assay with HuCD3E [1] below 10 nM.

B21: ABP100s.22 (antibody, V domains shown)
VH: B1 VH with Q78K
VL: B1 VL with P58S, I69L, F89Y
The molecule B21 gave a Kd with HuCD3E [2] below 10 nM.

B22: 32G4-V8 x huSP34-v5 (N297A, K322A) (bispecific antibody, V domains shown)
VH: B1 VH with R19K, G68D, Q78K, S79N, S80T, L81A
VL: B2 VL 2 with C102G, T107E, V108I, L109K
notes: The name carries the substitutions N297A, K322A
In turn, B22 showed a Kd with HuCD3E [3] below 10 nM.

B23: ABP100s.10.3 (antibody, V domains shown)
VH: B1 VH with R19K, G44C, G68D, Q78K, S79N, S80T, L81A
VL: B2 VL 2
The molecule B23 had a Kd with HuCD3E [1] below 10 nM.

B24: 32G4-V8-v5.1 (antibody, V domains shown)
VH: B1 VH with R19K, G68D, Q78K, S79N, S80T, L81A, A113G
VL: B2 VL 2 with C102G
Molecule B24 displayed a Kd with HuCD3E [3] below 10 nM.

B25: ABP100s.4 (antibody, V domains shown)
VH: B1 VH with Q13K, S77A, Q78K, K89R, T90A
VL: B1 VL
With B25, the Kd in the assay with HuCD3E [1] was below 10 nM.

B26: 47D10-V7 x huSP34-v5 (bispecific antibody, V domains shown)
VH: B1 VH with R19K, G68D, Q78K, S79N, S80T, L81A
VL: B2 VL 2 with C102G, T107E, V108I, L109K
notes: The name reads as 47D10-V7 arm x huSP34-v5 arm
In the case of B26, the Kd with HuCD3E [3] is below 10 nM.

B27: ABP100s.21 (antibody, V domains shown)
VH: B1 VH
VL: B1 VL with P58S, I69L, F89Y
In the case of B27, in the assay with HuCD3E [2], the Kd was below 10 nM.

B28: ABP100s.5 (antibody, V domains shown)
VH: B1 VH with R19K, G68D, Q78K, S79N, S80T, L81A
VL: B2 VL 2 with C102G, T107E, V108I, L109K
Take B28: the Kd in the assay with HuCD3E [1] is below 10 nM.

B29: ABP100s.7 (antibody, V domains shown)
VH: B1 VH with R19K, P41S, G68D, Q78K, S79N, S80T, L81A
VL: B2 VL 2 with C102G, T107E, V108I, L109K
Molecule B29 registered a Kd with HuCD3E [1] below 10 nM.

B30: ABP100s.10.2 (antibody, V domains shown)
VH: B1 VH with R19K, G44C, G68D, Q78K, S79N, S80T, L81A
VL: B2 VL 2
Take B30: the Kd in the assay with HuCD3E [1] is below 10 nM.

The term Kd denotes the concentration at which binding is half-saturated. A high value points to lower affinity.
